From PMC10636207

Biological target: T1, DcuR-His6 (Escherichia coli O157:H7 EDL933?) (UniProt P0AD02)
T1 sequence: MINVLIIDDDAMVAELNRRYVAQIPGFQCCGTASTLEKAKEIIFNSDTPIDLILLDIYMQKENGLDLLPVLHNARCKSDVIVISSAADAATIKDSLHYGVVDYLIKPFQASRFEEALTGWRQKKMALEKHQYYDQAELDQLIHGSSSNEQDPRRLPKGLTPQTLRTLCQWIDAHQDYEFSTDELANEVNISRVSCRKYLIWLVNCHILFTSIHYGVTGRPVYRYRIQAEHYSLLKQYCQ
Experiment: EMSA

Sequence | binding
AGATTCATCTGCAGGCTCTGAAGTAAGTATACGTGTGAATATTATTGCTTGAAAAAGCGTATTGGATAATATATACAGTATATGTACTTTATGTACATTGCAACTATTTAAATAATATAATAGTTGCCTATGGGATAATTTGGTTATTTATAACCAGGTAAATGTCTAAATTAGACAAAAGGAGAAAGATCAATGGAAGCAGCAAATTTAAGTCCTTCTGGTGCAGTAATG (double strand) [PLEE2/3] | no binding
CATTAGCCATTGGAAACTCACGTAATCATTAATTATGAATATTCCATTAAATAGTACTGTACAACAGCTTCCTTTCTACTCTATTCTTAGACGATGTAAGTTCACCATATTTTTTCTCATTGTTCAACCACCAGGATGAATAAAATTTAAAAATGTTATCCTCATATAAAATAAAACTTCTCAATGGTGCGATGCG (double strand) [PLEE4] | no binding
